Here are results for 6 molecules from patent US20040072256A1 (published 2004).

Assay [1] has as its target T1, hemagglutinin (HA) of Influenza virus A/PR/8/34 (H1N1) (Influenza virus A/PR/8/34 (H1N1), UniProt P03452 18-565).
T1 construct: whole, on cells; On IV-infected 1106mel cells; also called IV HA; viral HA
Briefly: flow cytometry on IV-infected vs uninfected 1106mel cells. Background: A flow cytometer gives signals particle by particle.

In assay [2] the target is T2, hemagglutinin-neuraminidase (HN) glycoprotein of Sendai virus (Sendai virus).
T2 construct: whole, on cells; also called SV HN; Sendai HN
As to the kind of experiment: flow cytometry, SV-infected vs uninfected 721.221 cells.

In assay [3] the target is T1, hemagglutinin (HA) of Influenza virus …. Briefly: flow cytometry on IV-infected 1106mel cells (FIG. 11).
The target of assay [4] is T2, hemagglutinin-neuraminidase (HN) …. Briefly: flow cytometry, 293T cells transfected with Sendai HN cDNA vs mock.
For assay [5], the target named is T1, hemagglutinin (HA) of Influenza virus …. As to the kind of experiment: flow cytometry, IV-infected vs uninfected 1106mel cells.

T2 sequence (P19758 whole entry): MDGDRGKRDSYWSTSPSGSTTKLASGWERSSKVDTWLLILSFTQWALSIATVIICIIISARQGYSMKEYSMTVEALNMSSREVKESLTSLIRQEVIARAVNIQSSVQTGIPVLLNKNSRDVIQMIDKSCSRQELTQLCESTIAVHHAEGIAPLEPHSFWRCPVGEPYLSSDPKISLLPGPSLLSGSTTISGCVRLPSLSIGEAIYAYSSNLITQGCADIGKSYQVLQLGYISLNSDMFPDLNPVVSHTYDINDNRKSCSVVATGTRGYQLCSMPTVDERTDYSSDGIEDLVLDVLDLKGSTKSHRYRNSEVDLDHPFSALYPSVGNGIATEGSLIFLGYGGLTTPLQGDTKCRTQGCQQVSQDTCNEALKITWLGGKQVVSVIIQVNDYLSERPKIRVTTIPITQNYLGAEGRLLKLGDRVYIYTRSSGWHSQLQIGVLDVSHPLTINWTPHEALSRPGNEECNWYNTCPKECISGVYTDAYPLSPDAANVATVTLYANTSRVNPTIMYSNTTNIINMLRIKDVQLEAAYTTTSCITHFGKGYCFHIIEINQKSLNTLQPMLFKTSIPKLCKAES

B1: NKAT-8-Ig fusion protein (Fc fusion)
chain: QEGVHRKPSFLALPGHLVKSEETVILQCWSDVMFEHFLLHREGKFNNTLHLIGEHHDGVSKANFSIGPMMPVLAGTYRCYGSVPHSPYQLSAPSDPLDMVIIGLYEKPSLSAQPGPTVQAGENVTLSCSSRSSYDMYHLSREGEAHERRLPAVRSINGTFQADFPLGPATHGGTYRCFGSFRDAPYEWSNSSDPLLVSVTGNPSNSWPSPTEPSSKTGNPRHLH
notes: extracellular domain; not shown: Fc portion of human IgG1
B1: the binding result in assay [1] is on record as “no binding”.

B2: NKp46D2-Ig fusion protein (Fc fusion)
chain: YDTPTLSVHPGPEVISGEKVTFYCRLDTATSMFLLLKEGRSSHVQRGYGKVQAEFPLGPVTTAHRGTYRCFGSYNNHAWSFPSEPVKLLVTGDIENTSLAPEDPTFPADTWGTYLLTTETGLQKDHALWDHTAQDPEPKSSDKTHTCPPCPAPEFEGAPSVFLFPPKPKDTLMISRTPEVTCVVVDVSHEDPEVKFNWYVDGVEVHNAKTKPREEQYNSTYRVVSVLTVLHQDWLNGKEYKCKVSNKALPAPIEKTISKAKGQPREPQVYTLPPSRDELTKNQVSLTCLVKGFYPSDIAVEWESNGQPENNYKTTPPVLDSDGSFFLYSKLTVDKSRWQQGNVFSCSVMHEALHNHYTQKSLSLSPGK
modifications: sialic acid residues (binding depends on them)
notes: Junction and leader used for secretion not described
B2: the “fold increase in staining on SV infection” value in assay [2] was ~10 fold.

B3: NKp30-Ig fusion protein (Fc fusion)
chain: LWVSQPPEIRTLEGSSAFLPCSFNASQGRLAIGSVTWFRDEVVPGKEVRNGTPEFRGRLAPLASSRFLHDHQAELHIRDVRGHDASIYVCRVEVLGLGVGTGNGTRLVVEKEHPQLGDPEPKSSDKTHTCPPCPAPEFEGAPSVFLFPPKPKDTLMISRTPEVTCVVVDVSHEDPEVKFNWYVDGVEVHNAKTKPREEQYNSTYRVVSVLTVLHQDWLNGKEYKCKVSNKALPAPIEKTISKAKGQPREPQVYTLPPSRDELTKNQVSLTCLVKGFYPSDIAVEWESNGQPENNYKTTPPVLDSDGSFFLYSKLTVDKSRWQQGNVFSCSVMHEALHNHYTQKSLSLSPGK
As for B3, in assay [1], the binding result is on record as “no binding”.

B4: KIR-1-Ig fusion protein (Fc fusion)
chain: HEGVHRKPSLLAHPGRLVKSEETVILQCWSDVMFEHFLLHREGMFNDTLRLIGEHHDGVSKANFSISRMTQDLAGTYRCYGSVTHSPYQVSAPSDPLDIVIIGLYEKPSLSAQLGPTVLAGENVTLSCSSRSSYDMYHLSREGEAHERRLPAGPKVNGTFQADFPLGPATHGGTYRCFGSFHDSPYEWSKSSDPLLVSVTGNPSNSWPSPTEPSSKTGNPRHLH
notes: as for B1
As for B4, the binding result in assay [1] is recorded as “no binding”.

B5: NKp46D1-Ig fusion protein (Fc fusion)
chain: QQQTLPKPFIWAEPHFMVPKEKQVTICCQGNYGAVEYQLHFEGSLFAVDRPKPPERINKVKFYIPDMNSRMAGQYSCIYRVGELWSEPSNLLDLVVTEMDPEPKSSDKTHTCPPCPAPEFEGAPSVFLFPPKPKDTLMISRTPEVTCVVVDVSHEDPEVKFNWYVDGVEVHNAKTKPREEQYNSTYRVVSVLTVLHQDWLNGKEYKCKVSNKALPAPIEKTISKAKGQPREPQVYTLPPSRDELTKNQVSLTCLVKGFYPSDIAVEWESNGQPENNYKTTPPVLDSDGSFFLYSKLTVDKSRWQQGNVFSCSVMHEALHNHYTQKSLSLSPGK
notes: Junction between domain and Fc not described
Regarding B5, in assay [3], the binding result was “no binding”.

B6: NKp44-Ig fusion protein (Fc fusion)
chain: QSKAQVLQSVAGQTLTVRCQYPPTGSLYEKKGWCKEASALVCIRLVTSSKPRTMAWTSRFTIWDDPDAGFFTVTMTDLREEDSGHYWCRIYRPSDNSVSKSVRFYLVVSPASASTQTPWTPRDLVSSQTQTQSCVPPTAGARQAPESPSTIPVPSQPQNSTLRPGPAAPDPEPKSSDKTHTCPPCPAPEFEGAPSVFLFPPKPKDTLMISRTPEVTCVVVDVSHEDPEVKFNWYVDGVEVHNAKTKPREEQYNSTYRVVSVLTVLHQDWLNGKEYKCKVSNKALPAPIEKTISKAKGQPREPQVYTLPPSRDELTKNQVSLTCLVKGFYPSDIAVEWESNGQPENNYKTTPPVLDSDGSFFLYSKLTVDKSRWQQGNVFSCSVMHEALHNHYTQKSLSLSPGK
modifications: sialylated oligosaccharides (binding to HA depends on them)
notes: Made in COS-7, purified on protein G
As for B6, in assay [2], the “fold increase in staining on SV infection” value was determined as 10 fold. Also, the “fold increase in staining on HN transfection” value in assay [4] is 2 fold. Further, the “fold increase in staining on IV infection” value in assay [5] is ~4 fold.
